The nanobody polyreactivity screen of Harvey et al. (2022)

Test: yeast display, Sf9 membrane polyspecificity reagent, FACS + sequencing; frameworks hold sequencing errors
Outline: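 Nanobodies came from a synthetic yeast display library in Saccharomyces cerevisiae BJ5465, induced with galactose for 36–48 hours and stained for 1 hour at 4 °C with 10% biotinylated, detergent-solubilized Sf9 membrane reagent. Cells were enriched on streptavidin microbeads and then FACS-sorted, with low and high (top ~1%) gates set on anti-HA fluorescence for expression and streptavidin fluorescence for reagent binding. Each polyreactivity label reflects the gate a clone came from. Genes were amplified by colony PCR, sequenced by MiSeq 2 × 250 and filtered by CDR length.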

| Sequence | polyreactivity (PSR sort gate) |
| --- | --- |
| QVQLVESGGGLVQAGGSLRLSCAASGGILRQNTMGWYRQAPGKETELVAAISSSGGRTYYADSVKGRFTISRDNAKNTVYLQMNSLKPEDTAVYYCARGYSWSVGYPRVHDMDYWGQGTQVTVSS | high polyreactivity |
| QVQLVESGGGLVQAGGSLRLSCAASGGILWFYAMGWYIQAPGKEREFVAAIDLGGGSTYYADSVKGRFTISRDNAKTTVYLQMNSLKPEDTAVYYCNAETSGHYSTIMDYWGQGTQVTVSS | low polyreactivity |
| QVQLVESGGGLVQAGGSLRLSCAASGGLFKVYGMRLYRQAPGQERELVAAISWTTGGTYYADSVKGRFTISRDNAKNTVYLQMNSLKPEDTAVYYCNAPTWYYSGVRYDYWGQGTQVTVSS | high polyreactivity |
| QVQLVESGGGLVQAGGSLRLSCAASGGNFLAYAMGWYRQAPGKERELVAAITRRGTRTYYADSVKGRFTISRDNAKNTVYLQMNSLKPEDTAVYYCAADYYPASAGFDYWGQGTQVTVSS | high polyreactivity |
| QVQLVESGGGLVQAGGSLRLSCAASGGNFSPNAMGWYRQAPGKERELVAAISSNGGSTNYADSVKGRFTISRDNAKNTVYLKMNSLKPEDTAVYYCAGLQKRRSYWRPFYWGQGTQVTVSS | low polyreactivity |
| QVQLVESGGGLVQAGGSLRLSCAASGGSFIANAMGRYRQAPGTEREVVAAITSGGSTNYADSVKGRFTISRDNAKNTVYLQMNSLKPDDTAVYYCNAEQNPSGLYDYRGVEGEMGYWGQGTQVTVSS | low polyreactivity |
| QVQLVESGGGLVQAGGSLRLSCAASGGSFLVNDMGWYRQAPGTERELVAAITSGGGTYYADSVKGRFTISRDNAKNTVYLQMNSLNPEDTAVYYCARDTYRPIVSNESYGYWGQGTQVTVSS | low polyreactivity |
| QVQLVESGGGLVQAGGSLRLSCAASGGTCGTNAMGWYRQAPGKEREFVAAISRSGGSTNYADSVKGRFTISRDKAKNTVYLQMNSLKPEDTAVYYCATRVIVVPLGGGYYSWGQGTQVTVSS | high polyreactivity |
| QVQLVESGGGLVQAGGSLRLSCAASGGTFAGYAMGWYRQAPGKERELVAAITYRSSTTYYADSVKGRFTISRDNANNTVYLQMNSLKPEDTAVYYCAARTRGTGRNRDYWGQGTQVTVSS | high polyreactivity |
| QVQLVESGGGLVQAGGSLRLSCAASGGTFATYAMGWYRQAPGKEKELVAAISWSGGSTYYADSVKGRFTISRDNAKNTVYLQMNSLKPEDTAVYYCNALPRLGGGAEKLDYWGQGTQVTVSS | high polyreactivity |
| QVQLVESGGGLVQAGGSLRLSCAASGGTFAVNAMGWYRQAPGKEREFVAAISSRGSTYYADSVKGRFTISRDNAKNNVYLQMNSLKPEDTAVYYCAAYRSYWEVYPRMYYWGQGTQVTVSS | high polyreactivity |
| QVQLVESGGGLVQAGGSLRLSCAASGGTFAYYAMGWYRQAPGKERELVAVISRRGTSTYYADSVKGRFTISRDNAKNTVYLQMNSLKPEDTAVYYCNARTWDHPYGYWGQGTQVTVSS | high polyreactivity |
| QVQLVESGGGLVQAGGSLRLSCAASGGTFDVYTMGWYRPAPGKERELVAAISSSGARTYYADSVKGRFTISRDNAKNTVNLQMNSLKPEDTAVFYCATRSLGLRWHYYYWGQGTQVTVSS | high polyreactivity |
| QVQLVESGGGLVQAGGSLRLSCAASGGTFDVYTMGWYRQAPGKERELVAAIDNGGSTNYADSVKGRFTISRDNAKNTVYLQMNSLQPEDTAVYYCAADEVYLFWGIAEFIYDYWGQGTQVTVSS | low polyreactivity |
| QVQLVESGGGLVQAGGSLRLSCAASGGTFEFYTMGLYRQAPGKERELVAVINASGDSTYYADSVKGRFTISRDNAKNTVYLQMNSLKPEDTAVYYCAADHRGEYDYWGQGTQVTVSS | low polyreactivity |
| QVQLVESGGGLVQAGGSLRLSCAASGGTFEPNAMGWYRQPPGKEREFVAAITWNGGRTNYADSVKGRFTISRDNAKNTVYLQMNSLKPEDTAVYYCAARSYTDYNYWGQGTQVTVSS | high polyreactivity |
| QVQLVESGGGLVQAGGSLRLSCAASGGTFESYTMGWYRQAPGKERELVATISTSGGRTYYADSVKGRFTISRDNAKNTVYLQMHSLKPEDTAVYYCNKVSDAYGEYVTLHLDYWGQGTLVTVSS | low polyreactivity |
